# From publication PMC4491177, “Co-translational capturing of nascent ribosomal proteins by their dedicated chaperones” (Nature Communications, 2015)
# How the values were obtained:
# [1] = soluble expression in E. coli; assay type: physicochemical; details: data not shown for Rpl10
# RPL3 mRNA = assay: co-translational capturing by qRT-PCR, RPL3 mRNA; assay type: binding, S. cerevisiae; details: NTAP-Rrb1 purification, cycloheximide-treated cells; one representative experiment, qPCR triplicates
# Method: (§1) Cells expressing Sqt1-TAP, NTAP-Rrb1, Syo1-FTpA and Yar1-TAP were grown at 30 °C in 400 ml YPD medium to an optical density (OD600) of 0.8, then cycloheximide was added to a final concentration of 0.2 mg ml^−1 and the flasks were kept, with intermittent vigorous shaking, on ice for 5 min. Cells were harvested by centrifugation for 5 min at 4 °C at 4,000 r.p.m., washed once with 20 ml of ice-cold lysis buffer (100 mM NaCl, 50 mM Tris-HCl (pH 7.5), 1.5 mM MgCl2, 0.1% NP-40 and 5% glycerol) containing 1 mM PMSF and 0.2 mg ml^−1 cycloheximide (lysis buffer-PC) and resuspended in 2 ml of lysis buffer-PC. Equal volumes of the resuspended cells were transferred into two 2.2 ml Eppendorf tubes, briefly centrifuged and resuspended in 600 μl of ice-cold lysis buffer-PC. To prevent RNA degradation, 4 μl of RiboLock (40 U μl^−1; Fermentas) was added. Then glass beads, corresponding to 1/3 of the lysis buffer volume, were added and the tubes were vigorously vortexed for 10 × 30 s with 30-s intervals on ice. Cell extracts were transferred to a new tube and, to maximize the yield, 400 μl of ice-cold lysis buffer-PC was used to rinse the glass beads. […]
# (§2) For RNA isolation from the TEV eluate aliquot (∼450 μl), the TEV eluate was adjusted to 10 mM EDTA (pH 8.0) and 0.5% SDS. […] RNA concentrations (A260) were determined using a NanoDrop 1000 spectrophotometer (Thermo Scientific). […]
# RPL5 mRNA = assay: co-translational capturing by qRT-PCR, RPL5 mRNA; assay type: binding, S. cerevisiae; details: Syo1-FTpA purification, cycloheximide-treated cells; one representative experiment, qPCR triplicates
# Method: as §1, §2
# RPS3 mRNA = assay: co-translational capturing by qRT-PCR, RPS3 mRNA; assay type: binding, S. cerevisiae; details: Yar1-TAP purification, cycloheximide-treated cells; one representative experiment, qPCR triplicates
# Method: as §1, §2
# sqt1 mutant cells = assay: in vivo ribosomal protein solubility assay; assay type: cell-based, S. cerevisiae; details: expressed for 20 min from copper-inducible promoter; in sqt1.E315A and sqt1.E110A/D420A mutant cells; 200,000g 1 h
# Method: The sqt1 mutant cells, either containing empty vector or a centromeric plasmid expressing Sqt1 from the ADH1 promoter, were grown in a volume of 100 ml to an OD600 of ∼0.7 and expression of C-terminally 2xHA-tagged Rpl10 was induced for 20 min from the CUP1 promoter with 500 μM copper sulfate. After harvesting, cells were lysed with glass beads in a buffer containing 50 mM Tris-HCl (pH 7.5), 100 mM NaCl, 1.5 mM MgCl2, 5% glycerol and 0.1% NP-40, and cell extracts were centrifuged for 3 min at 3,000 r.p.m. Then, total cell extracts, 10 A260 units in a final volume of 500 μl, were subjected to centrifugation at 200,000g for 1 h. Pellets were resuspended in 100 μl lysis buffer and equal amounts of the total extracts (T), soluble extracts (S) and pellet fractions (P) were analysed by SDS–polyacrylamide gel electrophoresis and western blotting using an anti-HA antibody.
# Supplementary Figure 9 Sqt1 is required for the soluble expression of Rpl10 in yeast.
# Expression of C-terminally 2xHA-tagged Rpl10 (Rpl10-2xHA) was induced for 20 min from the CUP1 promoter with 500 µM copper sulfate in sqt1.E315A or sqt1.E110A/D420A mutant cells containing empty vector (vector) or a plasmid expressing Sqt1 from the constitutive ADH1 promoter (SQT1). […]
molecule,measurement,setting,value
"Rrb1: dedicated chaperone of Rpl3; purified as NTAP-Rrb1 in b27 (protein, UniProt Q04225 1-511, looked up) Ribosome assembly protein RRB1: MSKRSIEVNEEQDRVVSAKTESHSVPAIPASEEQDAPKNDLEEQLSDEFDSDGEIIEIDGDDEINDEDDLRKKQEEAETLVQKDQSEGNKEKIQELYLPHMSRPLGPDEVLEADPTVYEMLHNVNMPWPCLTLDVIPDTLGSERRNYPQSILLTTATQSSRKKENELMVLALSNLAKTLLKDDNEGEDDEEDDEDDVDPVIENENIPLRDTTNRLKVSPFAISNQEVLTATMSENGDVYIYNLAPQSKAFSTPGYQIPKSAKRPIHTVKNHGNVEGYGLDWSPLIKTGALLSGDCSGQIYFTQRHTSRWVTDKQPFTVSNNKSIEDIQWSRTESTVFATAGCDGYIRIWDTRSKKHKPAISVKASNTDVNVISWSDKIGYLLASGDDNGTWGVWDLRQFTPSNADAVQPVAQYDFHKGAITSIAFNPLDESIVAVGSEDNTVTLWDLSVEADDEEIKQQAAETKELQEIPPQLLFVHWQKEVKDVKWHKQIPGCLVSTGTDGLNVWKTISV",soluble expression in E. coli,[1],inefficient expression of soluble Rrb1
same,enrichment of the specific ribosomal protein mRNA (RPL3),RPL3 mRNA,roughly 100 -fold
"Syo1: transport adaptor, chaperone of Rpl5 (and Rpl11) (protein, left off: FTpA, end not stated, kept) MGRSKKRSRASSSRLNPLRKAGSNDNNKDTNVVNKKLQPLLQNLSSVVPNDRSIALSSISVLCEDAHMRQLLLKEKLVPIILNKLLNDSNSDIVVESFGLLRNLSLEEGYDVSIYLWRSDIWTSITSNFGRIVESLSALQAAEQQPQLKPAGKSKIESKRLLFDFADNLLSLVVALSNGSDDILNEILTESKINEIFQVISQLLKYGVEKLPINLFNTTLDLIYDLSSESFEFIDHVSNNELLSQFLNGLSPALHPQANELTKVLIEGIHCQFLDMKITYDQCNKMIHSVCHSINNIDPVQLVNDINNPVEIGPATSKDESSKVITKIKDYNAKRNESMIKLQSIEIAIDLITAIIEIVASKYESPESQEVAIPEELINTLTNFLPHVFMILKDTFTSRILIGWNNLIWLFVSLSLTELSGELLTTLWSYVTQLDSQDDLSIKIGRMGCIWALLKLIFPDGAFESENRALINVQMLNNSGFARGIIEEFQNNNDLELQQKCINVLSTYAMIQGQIDANKEIGQFFIQTLTQLNVRPEILIEMTNSLFQIYGDASYDYNEPIFVRGGFLSILKDQVVPNLRQQFKMVDKNKNPELKERCHDCFTTLDSFIHYKMNENSTNQ",enrichment of the specific ribosomal protein mRNA (RPL5),RPL5 mRNA,roughly 100 -fold
"Yar1: ankyrin-repeat protein, chaperone of Rps3 (protein, left off: TAP, end not stated, kept, ankyrin-repeat protein, chaperone of Rps3) MGLHSEPLDQEDQDTIILDARAGDLDSLKDIFTTLVSPELLSTCKESESDSTALHMAAANGHIETVRYILETVSRANSAEDLKAFVNEVNKTGNTALHWASLNGKLDVVKLLCDEYEADPFIRNKFGHDAIFEAENSGKEEVETYFLKKYDVEPEDDEEDTQTEGKNSVQITKGTEIEQVTKEATEALREETEKLNINKD",enrichment of the specific ribosomal protein mRNA (RPS3),RPS3 mRNA,roughly 100 -fold
"Rpl10-2xHA: C-terminally 2xHA-tagged Rpl10 (protein, left off: 2xHA, C-terminal, kept, C-terminally 2xHA-tagged Rpl10) MARRPARCYRYQKNKPYPKSRYNRAVPDSKIRIYDLGKKKATVDEFPLCVHLVSNELEQLSSEALEAARICANKYMTTVSGRDAFHLRVRVHPFHVLRINKMLSCAGADRLQQGMRGAWGKPHGLAARVDIGQIIFSVRTKDSNKDVVVEGLRRARYKFPGQQKIILSKKWGFTNLDRPEYLKKREAGEVKDDGAFVKFLSKKGSLENNIREFPEYFAAQA",solubility of newly synthesized Rpl10-2xHA,sqt1 mutant cells,strongly reduced
